As a reminder, the Kd is a measure of binding affinity in units of concentration. A higher Kd goes with lower affinity.

This passage reports Kd results from PMC6479716.

In this experiment the target is AEDANS labelled N-ter hexahistidine tagged LMV VPg (Lettuce mosaic virus (isolate AF199)). Description: fluorescence polarisation; steady state fluorescence anisotropy of AEDANS labelled His6 VPg* (300 nM) on addition of His6 eIF4E; 25 °C, 20 mM HEPES pH 7.5, 0.25 mM NaCl, 1 mM DTT. On the technique in general: In fluorescence polarisation assays a small probe gives low polarisation when free and higher when bound to something large.

B1: N-ter hexahistidine tagged lettuce eIF4E (natural protein)
chain: MVEEIMKSEEQKLIDVNKHRGVRSDGEEDEQLEEGEIVGGDADTLSSSSSSRPGTAIAQHPLEHSWTFWFDTPSAKSKQVAWGSSMRPIYTFSSVEEFWSLYNNIHRPSKLAQGADFYCFKNKIEPKWEDPVCANGGKWTMTFTKAKSDTCWLYTLLAMIGEQFDHGDDICGAVVNVRARQEKIALWTKNAANESAQLSIGKQWKEFIDYNDTIGFIFHEDAKTLDRSAKNKYTV
Take B1: the Kd came out at 63 nM.
